This test addresses Mesothelin (MSLN) expressed on target cells (human) (UniProt Q13421). Nature of the test: cell-based or functional assay.

In turn, m912 benchmark MSLN CAR (scFv) had an EC50 (functional sensitivity), Jurkat NFAT-luciferase, MSLN molecules/cell on HEK293 cells (molecules/cell) of 80000.

Values taken from patent publication US20250269027A1.
